Among the targets are HLA-A*02:03; HLA-A*02:06; HLA-A*02:02.
What all share (experiment): IEDB peptide-MHC binding, purified MHC/competitive/radioactivity; filed as Kd, often an IC50 or EC50 that approximates it; ≥ and ≤ were set here for values at or beyond the usual limits of such assays
The mark [1] stands for this setting: source organism: SARS coronavirus Tor2.
The mark [2] stands for this setting: source organism: Vaccinia virus WR.
The mark [3] stands for this setting: source organism: Mammarenavirus whitewaterense.
The mark [4] stands for this setting: source organism: Mammarenavirus machupoense.
[5] abbreviates: source organism: Mammarenavirus guanaritoense.

Where only a bound is given, the exact number is not on record here.

HAFLCLFLL: the Kd (commonly the concentration at which binding is half-saturated) turned out to be 46.5 nM with HLA-A*02:03 (setting [1]), 1.22 nM with HLA-A*02:06 (setting [1]) and 20.7 nM in the assay with HLA-A*02:02 (setting [1]).

As to NTGMGMYYPT, the figures for the Kd in the assay with HLA-A*02:03 (setting [2]), in the assay with HLA-A*02:06 (setting [2]) and in the assay with HLA-A*02:02 (setting [2]) were not below 21000 nM, 11400 nM and not below 23400 nM, respectively.

ITDQTVNICI: the values for the Kd with HLA-A*02:03 (setting [2]), with HLA-A*02:06 (setting [2]) and with HLA-A*02:02 (setting [2]) were not below 70400 nM, 10400 nM and not below 70000 nM, respectively.

With QLFNHTMFIL, the results for the Kd in the assay with HLA-A*02:03 (source organism: Homo sapiens) and with HLA-A*02:02 (source organism: Homo sapiens) were 8.18 nM and 0.423 nM, respectively.

As for YCHGILLKDV, the results for the dissociation constant (Kd) with HLA-A*02:03 (setting [3]), in the assay with HLA-A*02:06 (setting [3]) and with HLA-A*02:02 (setting [3]) were 13000 nM, 14900 nM and not below 70000 nM, respectively.

Turning to SAGFTATICL, the Kd is not below 20100 nM in the assay with HLA-A*02:03 (setting [2]), 2410 nM with HLA-A*02:06 (setting [2]) and 6900 nM with HLA-A*02:02 (setting [2]).

Regarding FTEEQQQSFM, the Kd with HLA-A*02:03 (setting [2]) was determined as 1750 nM; with HLA-A*02:06 (setting [2]), 833 nM; with HLA-A*02:02 (setting [2]), 1120 nM.

For the sequence AAVIIMAINV, the Kd in the assay with HLA-A*02:03 (setting [2]) is 607 nM; with HLA-A*02:06 (setting [2]), 446 nM; with HLA-A*02:02 (setting [2]), 1290 nM.

Consider CALVSDCAST, for which the Kd with HLA-A*02:03 (setting [2]) stood at 146 nM; with HLA-A*02:06 (setting [2]), 2600 nM; in the assay with HLA-A*02:02 (setting [2]), 6410 nM.

Turning to FLDWIKDIMT, the Kd with HLA-A*02:03 (setting [2]) turned out to be 146 nM; with HLA-A*02:06 (setting [2]), 140 nM; in the assay with HLA-A*02:02 (setting [2]) it was 424 nM.

Turning to FQRVLIFIL, in the assay with HLA-A*02:06 (source organism: Dengue virus 2 Peru/IQT2913/1996), the Kd turned out to be 1580 nM.

Turning to LIVNSVLLFL, the Kd in the assay with HLA-A*02:03 (setting [1]) worked out at 90.4 nM; in the assay with HLA-A*02:06 (setting [1]) it was 10.8 nM; in the assay with HLA-A*02:02 (setting [1]) it was 3.67 nM.

Regarding LILSNKLLYA, the Kd with HLA-A*02:03 (setting [2]) was found to be 122 nM; with HLA-A*02:06 (setting [2]), 36.1 nM; with HLA-A*02:02 (setting [2]), 468 nM.

AIILASFSA: the Kd amounted to 176 nM in the assay with HLA-A*02:03 (setting [1]), 81.6 nM with HLA-A*02:06 (setting [1]) and 201 nM in the assay with HLA-A*02:02 (setting [1]).

Turning to AMWLLLLSI, the Kd in the assay with HLA-A*02:03 (setting [1]) amounted to 205 nM; in the assay with HLA-A*02:06 (setting [1]) it was 268 nM; in the assay with HLA-A*02:02 (setting [1]), 357 nM.

Turning to DLAIKQYGDI, the equilibrium dissociation constant (Kd) with HLA-A*02:03 (setting [2]) is not below 33300 nM; with HLA-A*02:06 (setting [2]), not below 46500 nM; with HLA-A*02:02 (setting [2]), 17900 nM.

As to PLVAGGLLTV, the Kd in the assay with HLA-A*02:03 (source organism: Dengue virus 2 Jamaica/1409/1983) is 35.1 nM.

For the sequence LLDCIMYQS, the results for the Kd with HLA-A*02:03 (setting [4]), in the assay with HLA-A*02:06 (setting [4]) and with HLA-A*02:02 (setting [4]) were 2270 nM, 3280 nM and 1530 nM, respectively.

For IAGGVCYYL, the Kd was 1680 nM in the assay with HLA-A*02:03 (setting [2]), 1410 nM in the assay with HLA-A*02:06 (setting [2]) and 53.1 nM with HLA-A*02:02 (setting [2]).

Take TQSGALEVLM: the Kd with HLA-A*02:03 (setting [2]) came out at 15400 nM; with HLA-A*02:06 (setting [2]), 2230 nM; with HLA-A*02:02 (setting [2]), 836 nM.

Regarding ITLILSNKL, the Kd with HLA-A*02:03 (setting [2]) stood at 17100 nM; with HLA-A*02:06 (setting [2]), 396 nM; with HLA-A*02:02 (setting [2]) it was 5110 nM.

For the sequence EAFETQSGAL, the Kd with HLA-A*02:03 (setting [2]) is 995 nM; with HLA-A*02:06 (setting [2]), 15000 nM; with HLA-A*02:02 (setting [2]), 8560 nM.

For LTLKGMSYV, in the assay with HLA-A*02:06 (source organism: Dengue virus 1 Singapore/S275/1990), the Kd amounted to 7 nM.

Take ILISLINSLV: the Kd with HLA-A*02:03 (setting [2]) was determined as 3.08 nM; with HLA-A*02:06 (setting [2]), 151 nM; in the assay with HLA-A*02:02 (setting [2]), 22.9 nM.

As for NTITTFIPI, the Kd with HLA-A*02:03 (setting [2]) is 988 nM; with HLA-A*02:06 (setting [2]), 7770 nM; with HLA-A*02:02 (setting [2]), 15500 nM.

FLVLIMLII: the Kd with HLA-A*02:03 (setting [1]) was 9730 nM; in the assay with HLA-A*02:06 (setting [1]), 1350 nM; with HLA-A*02:02 (setting [1]) it was 1630 nM.

Take YVSVMNFIPI: the figures for the dissociation constant (Kd) in the assay with HLA-A*02:03 (setting [2]), with HLA-A*02:06 (setting [2]) and with HLA-A*02:02 (setting [2]) were 152 nM, 0.109 nM and 341 nM, respectively.

Turning to KLMGHFSWWT, the Kd turned out to be 213 nM in the assay with HLA-A*02:03 (setting [1]), 99.1 nM with HLA-A*02:06 (setting [1]) and 64.4 nM with HLA-A*02:02 (setting [1]).

As for EILSNTTKTL, the Kd was 101 nM with HLA-A*02:03 (setting [2]), not below 69800 nM with HLA-A*02:06 (setting [2]) and 345 nM in the assay with HLA-A*02:02 (setting [2]).

Regarding KVLSIMAFIL, the Kd with HLA-A*02:03 (setting [2]) worked out at 684 nM; with HLA-A*02:06 (setting [2]), 19.1 nM; in the assay with HLA-A*02:02 (setting [2]) it was 2.32 nM.

With RLASNAICSA, in the assay with HLA-A*02:03 (source organism: Dengue virus 3 Martinique/1243/1999), the Kd is 135 nM.

With GVPHSVFIA, the Kd stood at 3630 nM with HLA-A*02:03 (setting [2]), 101 nM in the assay with HLA-A*02:06 (setting [2]) and 5370 nM in the assay with HLA-A*02:02 (setting [2]).

YLMCLSPLM: the values for the Kd with HLA-A*02:03 (setting [1]), with HLA-A*02:06 (setting [1]) and in the assay with HLA-A*02:02 (setting [1]) were 0.297 nM, 1.12 nM and 0.137 nM, respectively.

In the case of IAVSVYGAI, the Kd in the assay with HLA-A*02:03 (setting [2]) turned out to be 124 nM; with HLA-A*02:06 (setting [2]), 1100 nM; in the assay with HLA-A*02:02 (setting [2]) it was 1480 nM.

With RLQMAGVEV, the Kd with HLA-A*02:03 (setting [2]) was determined as 531 nM; with HLA-A*02:06 (setting [2]), 4110 nM; with HLA-A*02:02 (setting [2]), 326 nM.

AAAKTPVIVV: the values for the Kd with HLA-A*02:03 (setting [2]), with HLA-A*02:06 (setting [2]) and with HLA-A*02:02 (setting [2]) were 1520 nM, 13400 nM and 8040 nM, respectively.

Consider YVIGLLPQS, for which the Kd was not below 78100 nM with HLA-A*02:03 (setting [5]), not below 48000 nM with HLA-A*02:06 (setting [5]) and not below 77700 nM with HLA-A*02:02 (setting [5]).

Values taken from the Immune Epitope Database (IEDB).
